From patent US20220242962A1 (APTEVO RESEARCH AND DEVELOPMENT, published 2022)

T1: Human OX40 ECD-AFH (human)
T1 construct: ECD'; entry includes the C-terminal tags; also called OXF003; Human OX40 ECD-avi-flag-his
T1 chain: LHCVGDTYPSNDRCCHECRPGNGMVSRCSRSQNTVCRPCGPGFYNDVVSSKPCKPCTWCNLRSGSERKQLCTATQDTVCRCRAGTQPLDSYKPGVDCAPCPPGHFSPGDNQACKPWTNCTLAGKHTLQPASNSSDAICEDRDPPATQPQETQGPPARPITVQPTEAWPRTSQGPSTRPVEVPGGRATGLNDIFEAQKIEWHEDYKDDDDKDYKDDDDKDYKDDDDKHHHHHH


Experiments:
[1] = target: T1, Human OX40 ECD-AFH; assay: SPR, construct captured, monomeric ECD as analyte
Description: (§1) Mouse anti-human IgG (GE, BR-1008-39) at 25 μg/ml in 10 mM sodium acetate pH 5.0 was immobilized at a density of ˜10,000 response units (RU) onto each flow cell of a CM5 research-grade sensor chip (GE) by standard amine coupling chemistry. Each binding protein at approximately 100 nM in HBS-EP+ with 0.2% BSA buffer was captured in a flow cell with the immobilized anti-human IgG at a flow rate of 10 μL/min for 20 seconds, leaving one flow cell surface unmodified as the reference. Using a single-cycle kinetics mode, five different concentrations of ECD were sequentially injected through each flow cell at 30 μL/min for 300 seconds followed by a 600 second dissociation period. Regeneration was achieved by injection of 3 M MgCl₂ at a flow rate of 30 μL/min for 30 seconds followed by HBS-EP+ with 0.2% BSA buffer stabilization for 1 min.
(§2) Sensorgrams obtained from kinetic SPR measurements were analyzed by the double subtraction method. The signal from the reference flow cell was subtracted from the analyte binding response obtained from flow cells with immobilized or captured ligands. Buffer reference responses were then averaged from multiple injections. The averaged buffer reference responses were then subtracted from analyte binding responses, and the final double-referenced data were analyzed with Biacore T200 Evaluation software (2.0, GE), globally fitting data to derive kinetic parameters. All sensorgrams were fitted using a simple one-to-one binding model.
(§3) Protein was produced by transient expression, purified by ProA chromatography and prep SEC.

[2] = target: T2, Human 4-1BB ECD-AFH (human); assay: SPR, construct captured, monomeric ECD as analyte
T2 construct: entry includes the tags; also called FOB003; HUMAN CD137 ECD-AVI-FLAG-HIS
T2 sequence (chain, as listed by the source limits assumed): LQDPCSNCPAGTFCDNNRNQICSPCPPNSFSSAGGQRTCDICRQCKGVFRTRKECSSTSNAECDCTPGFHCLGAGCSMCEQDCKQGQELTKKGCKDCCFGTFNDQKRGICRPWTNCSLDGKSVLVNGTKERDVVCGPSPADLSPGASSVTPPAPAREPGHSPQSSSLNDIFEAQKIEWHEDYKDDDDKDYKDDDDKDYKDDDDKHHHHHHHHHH
Description: as §1, §2, §3

[3] = target: T3, Fc gamma receptor RI (human, UniProt P12314 16-288); assay: SPR, construct immobilized, receptor injected at 100 nM
T3 construct: also called FcγRI
T3 sequence (P12314 16-288 limits assumed): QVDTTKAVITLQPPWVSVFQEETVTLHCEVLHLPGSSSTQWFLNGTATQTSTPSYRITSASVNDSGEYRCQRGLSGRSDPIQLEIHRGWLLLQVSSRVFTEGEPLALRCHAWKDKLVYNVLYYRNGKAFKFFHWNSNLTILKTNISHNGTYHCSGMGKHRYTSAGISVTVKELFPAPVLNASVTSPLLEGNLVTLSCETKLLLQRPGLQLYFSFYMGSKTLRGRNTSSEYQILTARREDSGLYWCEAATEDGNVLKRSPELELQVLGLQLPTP
Description: (§4) Fcγ receptor binding to bispecific proteins was measured by Surface Plasmon Resonance on a Biacore 8K instrument at room temperature. Bispecific proteins with modified Fc regions to reduce binding to Fcγ receptors were directly immobilized on the surface of a CM5 sensor chip to a surface density of 4000 RU. A bispecific ADAPTIR™ protein with a wild type Fc was similarly immobilized to the surface as a positive control and used as a comparator to evaluate the reduction in binding resulting from changes incorporated into the Fc region amino acid sequence. Fcγ receptors (purchased from R&D Systems) were diluted to either 100 nM (FcγRI) or 2 μM (all other Fcγ receptors) in HBS-EP+ buffer before injecting over the surface of the prepared sensor chip at 30 μL/min for 60 seconds. Maximum RU values during association phase of each injection were used to compare the extent of binding of the modified Fc to wild type value and are reported in Table 17 below.

[4] = target: T4, Fc gamma receptor RIIIA V176 (human, UniProt P08637 17-208); assay: SPR, construct immobilized, receptor injected at 2 uM
T4 construct: soluble SPR analyte
T4 sequence (P08637 17-208 F176V): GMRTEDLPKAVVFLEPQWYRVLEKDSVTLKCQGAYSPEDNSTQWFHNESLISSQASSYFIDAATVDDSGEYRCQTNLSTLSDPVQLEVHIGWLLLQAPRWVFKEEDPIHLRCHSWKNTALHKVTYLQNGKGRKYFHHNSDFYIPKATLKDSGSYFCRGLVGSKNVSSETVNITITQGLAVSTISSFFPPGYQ
Description: as §4

Row | Binder | Kd [1] [nM] | koff [1] [s⁻¹] | kon [1] [M⁻¹ s⁻¹] | Kd [2] [nM] | koff [2] [s⁻¹] | kon [2] [M⁻¹ s⁻¹] | Max RU value during association [3] [RU] | Max RU value during association [4] [RU]
1 | FXX01066 (bispecific antibody, ADAPTIR scFv-Fc-scFv, anti-4-1BB (VH-VL) N-terminal, anti-OX40 C-terminal, PAA (del) Fc; also called FX01066) EVQLVQSGAEVKKPGASVKVSCKASGYTFTSYWMNWVRQAPGQGLEWMGNIYPSGGSTNYAQKFQGRVTMTVDTSTSTVYMELSSLRSEDTAVYYCASFSDGYYAYAMDYWGQGTLVTVSSGGGGSGGGGSGGGGSGGGGSEIVMTQSPATLSLSPGERATLSCRASQSVSSYLNWYQQKPGQAPRLLIYYASRRHTGIPARFSGSGSGTDFTLTISSLQPEDFAVYYCQQGYNLPYTFGQGTKVEIKEPKSSDKTHTCPPCPAPPAAAPSVFLFPPKPKDTLMISRTPEVTCVVVDVSHEDPEVKFNWYVDGVEVHNAKTKPREEQYNSTYRVVSVLTVLHQDWLNGKEYKCAVSNKALPAPIEKTISKAKGQPREPQVYTLPPSRDELTKNQVSLTCLVKGFYPSDIAVEWESNGQPENNYKTTPPVLDSDGSFFLYSKLTVDKSRWQQGNVFSCSVMHEALHNHYTQKSLSLSPGGGGSPSSYVLTQPPSVSVAPGQTARITCGGNNIGSKSVNWFQQKPGQAPVLVVYDDSGRPSGIPERFSGSTSGNTATLTISRVEAGDEADYYCQVWDSSSDHVVFGGGTKLTVLGGGGSGGGGSGGGGSGGGGSQVQLVESGGGVVQPGRSLRLSCAASGFTLSYYGMHWVRQAPGKGLEWVAAISHDGSDKYYADSVKGRFTISRDNSKNTLYLQMNSLRAEDTAVYYCSNDQFDPWGQGTLVTVSSR | 0.5 | 0.00031 | 680000 | 15 | 0.0045 | 290000 | 0 | 
2 | FXX01111 (bispecific antibody, ADAPTIR anti-4-1BB x anti-OX40, pI variant; PAA (del) Fc) EVQLVQSGAEVKKPGASVKVSCKASGYTFTSYWMNWVRQAPGQGLEWMGNIYPSGGSTNYAQKFQGRVTMTVDTSTSTVYMELSSLRSEDTAVYYCASFSDGYYAYAMDYWGQGTLVTVSSGGGGSGGGGSGGGGSGGGGSEIVMTQSPATLSLSPGERATLSCRASQSVSSYLNWYQQKPGQAPRLLIYYASRRHTGIPARFSGSGSGTDFTLTISSLQPEDFAVYYCQQGYNLPYTFGQGTKVEIKEPKSSDKTHTCPPCPAPPAAAPSVFLFPPKPKDTLMISRTPEVTCVVVDVSHEDPEVKFNWYVDGVEVHNAKTKPREEQYNSTYRVVSVLTVLHQDWLNGKEYKCAVSNKALPAPIEKTISKAKGQPREPQVYTLPPSRDELTKNQVSLTCLVKGFYPSDIAVEWESNGQPENNYKTTPPVLDSDGSFFLYSKLTVDKSRWQQGNVFSCSVMHEALHNHYTQKSLSLSPGGGGSPSSYVLTQPPSVSVAPGQTARITCGGNNIGSKSVNWFQQKPGQAPVLVVYDDSGRPSGVPNRFSGSTSGNTATLTISRVEAGDEADYYCQVWDSSSDHVVFGGGTKLTVLGGGGSGGGGSGGGGSGGGGSQVQLVESGGGVVQPGRSLRLSCAASGFTLSYYGMHWVRQAPGKGLEWVAAISHDGSDKYYADSVKGRFTISRDNSKNTLYLQMNSLRAEDTAVYYCSNDQFDPWGQGTLVTVSSR |  |  |  |  |  |  | 0 | 
3 | FXX01101 (bispecific antibody, ADAPTIR anti-4-1BB (HL) x anti-OX40 with T86R; PAA (del) Fc; also called FX01101) EVQLVQSGAEVKKPGASVKVSCKASGYTFTSYWMNWVRQAPGQGLEWMGNIYPSGGSTNYAQKFQGRVTMTVDTSTSTVYMELSSLRSEDTAVYYCASFSDGYYAYAMDYWGQGTLVTVSSGGGGSGGGGSGGGGSGGGGSEIVMTQSPATLSLSPGERATLSCRASQSVSSYLNWYQQKPGQAPRLLIYYASRRHTGIPARFSGSGSGTDFTLTISSLQPEDFAVYYCQQGYNLPYTFGQGTKVEIKEPKSSDKTHTCPPCPAPPAAAPSVFLFPPKPKDTLMISRTPEVTCVVVDVSHEDPEVKFNWYVDGVEVHNAKTKPREEQYNSTYRVVSVLTVLHQDWLNGKEYKCAVSNKALPAPIEKTISKAKGQPREPQVYTLPPSRDELTKNQVSLTCLVKGFYPSDIAVEWESNGQPENNYKTTPPVLDSDGSFFLYSKLTVDKSRWQQGNVFSCSVMHEALHNHYTQKSLSLSPGGGGSPSSYVLTQPPSVSVAPGQTARITCGGNNIGSKSVNWFQQKPGQAPVLVVYDDSGRPSGIPERFSGSTSGNTATLTISRVEAGDEADYYCQVWDSSSDHVVFGGGTKLTVLGGGGSGGGGSGGGGSGGGGSQVQLVESGGGVVQPGRSLRLSCAASGFTLSYYGMHWVRQAPGKGLEWVAAISHDGSDKYYADSVKGRFTISRDNSKNRLYLQMNSLRAEDTAVYYCSNDQFDPWGQGTLVTVSSR | 0.6 | 0.00041 | 630000 | 16 | 0.0046 | 290000 | 0 | 

The next lines start with the values.

Row | Kd [1] [nM] | koff [1] [s⁻¹] | kon [1] [M⁻¹ s⁻¹] | Kd [2] [nM] | koff [2] [s⁻¹] | kon [2] [M⁻¹ s⁻¹] | Max RU value during association [3] [RU] | Max RU value during association [4] [RU] | Binder
4 |  |  |  |  |  |  |  | 0 | FXX01115 (bispecific antibody, ADAPTIR anti-4-1BB x anti-OX40, pI variant; PAA (del) Fc) EVQLVQSGAEVKKPGASVKVSCKASGYTFTSYWMNWVRQAPGQGLEWMGNIYPSGGSTNYAQKFQGRVTMTVDTSTSTVYMELSSLRSEDTAVYYCASFSDGYYAYAMDYWGQGTLVTVSSGGGGSGGGGSGGGGSGGGGSEIVMTQSPATLSLSPGERATLSCRASQSVSSYLNWYQQKPGQAPRLLIYYASRRHTGIPARFSGSGSGTDFTLTISSLQPEDFAVYYCQQGYNLPYTFGQGTKVEIKEPKSSDKTHTCPPCPAPPAAAPSVFLFPPKPKDTLMISRTPEVTCVVVDVSHEDPEVKFNWYVDGVEVHNAKTKPREEQYNSTYRVVSVLTVLHQDWLNGKEYKCAVSNKALPAPIEKTISKAKGQPREPQVYTLPPSRDELTKNQVSLTCLVKGFYPSDIAVEWESNGQPENNYKTTPPVLDSDGSFFLYSKLTVDKSRWQQGNVFSCSVMHEALHNHYTQKSLSLSPGGGGSPSSYVLTQPPSVSVAPGQTARITCGGNNIGSKSVNWFQQKPGQAPVLVVYDDSGRPSGVPNRFSGSTSGNTATLTISRVEAGDEADYYCQVWDSSSDHVVFGGGTKLTVLGGGGSGGGGSGGGGSGGGGSQVQLVESGGGVVQPGRSLRLSCAASGFTLSYYGMHWVRQAPGKGLEWVAAISHDGSDKYYADSVKGRFTISRDNSKNRLYLQMNSLRAEDTAVYYCSNDQFDPWGQGTLVTVSSR
5 | 0.4 | 0.0003 | 710000 | 15 | 0.0043 | 290000 |  |  | FXX01102 (bispecific antibody, ADAPTIR anti-4-1BB (HL) x anti-OX40 with Q17K and T86R; PAA (del) Fc; also called FX01102) EVQLVQSGAEVKKPGASVKVSCKASGYTFTSYWMNWVRQAPGQGLEWMGNIYPSGGSTNYAQKFQGRVTMTVDTSTSTVYMELSSLRSEDTAVYYCASFSDGYYAYAMDYWGQGTLVTVSSGGGGSGGGGSGGGGSGGGGSEIVMTQSPATLSLSPGERATLSCRASQSVSSYLNWYQQKPGQAPRLLIYYASRRHTGIPARFSGSGSGTDFTLTISSLQPEDFAVYYCQQGYNLPYTFGQGTKVEIKEPKSSDKTHTCPPCPAPPAAAPSVFLFPPKPKDTLMISRTPEVTCVVVDVSHEDPEVKFNWYVDGVEVHNAKTKPREEQYNSTYRVVSVLTVLHQDWLNGKEYKCAVSNKALPAPIEKTISKAKGQPREPQVYTLPPSRDELTKNQVSLTCLVKGFYPSDIAVEWESNGQPENNYKTTPPVLDSDGSFFLYSKLTVDKSRWQQGNVFSCSVMHEALHNHYTQKSLSLSPGGGGSPSSYVLTQPPSVSVAPGKTARITCGGNNIGSKSVNWFQQKPGQAPVLVVYDDSGRPSGIPERFSGSTSGNTATLTISRVEAGDEADYYCQVWDSSSDHVVFGGGTKLTVLGGGGSGGGGSGGGGSGGGGSQVQLVESGGGVVQPGRSLRLSCAASGFTLSYYGMHWVRQAPGKGLEWVAAISHDGSDKYYADSVKGRFTISRDNSKNRLYLQMNSLRAEDTAVYYCSNDQFDPWGQGTLVTVSSR
6 |  |  |  |  |  |  |  | 0 | FXX01119 (bispecific antibody, ADAPTIR anti-4-1BB x anti-OX40, pI variant; PAA (del) Fc) EVQLVQSGAEVKKPGASVKVSCKASGYTFTSYWMNWVRQAPGQGLEWMGNIYPSGGSTNYAQKFQGRVTMTVDTSTSTVYMELSSLRSEDTAVYYCASFSDGYYAYAMDYWGQGTLVTVSSGGGGSGGGGSGGGGSGGGGSEIVMTQSPATLSLSPGERATLSCRASQSVSSYLNWYQQKPGQAPRLLIYYASRRHTGIPARFSGSGSGTDFTLTISSLQPEDFAVYYCQQGYNLPYTFGQGTKVEIKEPKSSDKTHTCPPCPAPPAAAPSVFLFPPKPKDTLMISRTPEVTCVVVDVSHEDPEVKFNWYVDGVEVHNAKTKPREEQYNSTYRVVSVLTVLHQDWLNGKEYKCAVSNKALPAPIEKTISKAKGQPREPQVYTLPPSRDELTKNQVSLTCLVKGFYPSDIAVEWESNGQPENNYKTTPPVLDSDGSFFLYSKLTVDKSRWQQGNVFSCSVMHEALHNHYTQKSLSLSPGGGGSPSSYVLTQPPSVSVAPGKTARITCGGNNIGSKSVNWFQQKPGQAPVLVVYDDSGRPSGVPNRFSGSTSGNTATLTISRVEAGDEADYYCQVWDSSSDHVVFGGGTKLTVLGGGGSGGGGSGGGGSGGGGSQVQLVESGGGVVQPGRSLRLSCAASGFTLSYYGMHWVRQAPGKGLEWVAAISHDGSDKYYADSVKGRFTISRDNSKNRLYLQMNSLRAEDTAVYYCSNDQFDPWGQGTLVTVSSR
